# Reference: the DeepSol protein solubility set
# Assay: soluble on expression in E. coli; label from the status in PepcDB or PDB records
row,Sequence,soluble on expression in E. coli
1,MIRVMLSQLSSVLNARLIGEDRAVSAVSTDSRAIPAEALFVALVGERFDAHDFASQAVTGGAVALLVERELDAECSQLVVADTKQALGQLGSWVHAQCQTPTVAITGSCGKTTVKEMVASILSQKGQVLYTQGNFNNDIGVPLTLLRSTTEDDYAVIELGANHVGEIAYTTALVKPDVALVNNVAAAHLEGFGSMDGVKRAKGEIYQGLQAGAVAIVNLDSNGGDYWKAVLADKTVKTFSATDHNADFYPRDVRLNALGIASFTLVTPVGEVGVELGIMGQHNVANALAAAALSLEMGASLAEIGQGLAHLSKVKGRVDMAQLRDDITLIDDSYNASVPAMKAAVELLGSFSAVRWLILGNMAELGDESLALHQQVGEHAAPFGFEFVLTYGKDAKVISDLCQGHHFATHQDMMTFIEQHIEQQQGRTQVLLVKGANSAGMSKIAAALKEKFA,not soluble
2,EEIDCNDKDLFKAVDAALKKYNSQNQSNNQFVLYRITEATKTVGSDTFYSFKYEIKEGDCPVQSGKTWQDCEYKDAAKAATGECTATVGKRSSTKFSVATQTCQITPAEGPVVTAQYDCLGCVHPISTQSPDLEPILRHGIQYFNNNTQHSSLFMLNEVKRAQRQVVAGLNFRMTYSIVQTNCSKENFLFLTPDCKSLWNGDTGECTDNAYIDIQLRIASFSQNCDIYPGKDFVQPPTKICVGCPRDIPTNSPELEETLTHTITKLNAENNATFYFKIDNVKKARVQVVAGKKYFIDFVARETTCSKESNEELTESCETKKLGQSLDCNAEVYVVPWEKKIYPTVNCQPLGMISLMKRPPGFSPFRSSRIGEIKEETTSHLRSCEYKGRPPKAGAEPASEREVS,not soluble
3,RELLMMTPSKELCQVVGNDVLEIEKVSDHQLKLAGITKVGQELRVNIDLHVDDDMIELDTLEQTRKQLTTRLSKHRFKLQLNLNVANC,not soluble
4,MAHHHHHHMEKLREHSERPVPDMLVLPLTASLPQEVQSRVFEPTPPRCRKVVLATNVAETSITITNLYFVVDSGFCKQNVFDPKTGMEQLKIVPISQAQAQQRAGRAGRIGPGKCFRMYTELQFQMDMEPATVPDIQRSNLFHVVLQLKAMGINDLFALDLMDPPPQETLVSALQKLRYLEALDDDGLLTPLGGRMAQLPIDPSQSKTLLTAVDMGCCEPVLTIVSMLAVQKRGVFYRPRDQHEASDAAKRQFHQPEGDQITLLAVYDAWVANGLSEEWCKRNFLKHRILMEARDTREQLSDMLHKRHASIPHHNDDALTEVRRAITAGYFFNVAKRITDVAYATLAERREVYVHPSSCLRDAPPKYVLYNELQLTNREYMRELLVIEPQWLVELAPAFYSRPRKGKLTKEQRAERLNPILRAWENGSSWRISKLRRRK,not soluble
5,MGSDKIHHHHHHMIGKIEPLGTSTGKILYNSHCQNILDLSVAETMEIFKSSGVILFRDFGVTPKQMKDFSEQFSGKHIIDFTKVSIDSDKYVNFVDGGMDGLIPHCENSCFPFRPDVIWFCCTVPAEQEGETLFWDGIRVWEELSQESKQLFLSKQLKFSYKNVPVDILKGIIGSNANTIDDIKQRLDSVDGVSYQFNDDKTVSVEYTCSSVVNNKYNHQNAFANHFWVYQKRTEEAIFDDGSRASDEVADEIERIFDKLTEKIPWKAGDLVMMDNSRFLHGRGAFTDNRRQVFTTLSNLKF,not soluble
6,MGSDKIHHHHHHMTTILQLSDLHIGPHNDEKDQKTYDLIHHMMTHYQPDITVLTGDQIWSEGVIDSGRVYKKLMEYLNRYDTQIATTFGNHDTEGHLKRSDLRAIEDQYSTNYVQKNHSLIVDDKEAYTIEVVNNDTVTHVLYVIDGGDYNPFGIGDYDFIRPEHVNWLRETHQAYQTQFQHNFQHNLLFTHIPLQEYREVENIGEYHGIFNEPIACSKINSGLFSQMLLNGDIEGMFCGHDHDNDFTINLYGIRLSFGRIGGYNTYGDLQRGARLIELQPDAIYKSKVLEFDDRF,not soluble
7,GPGSMLRAACCVLSGFPASVSRLFFLSWISLVDTALSFPPPRQTEIAPTRVWAGEGGGGGITALQAVTCPSHSTTCAACAGAGQHPPPPCQPPCRCVRVRVCVVHALLLPPPPSLAILLSCAQTTSTSLPPCFRRQSRARPPPHTHTHIHKHRASCAHHLSLPLLPHMSTAADRQAFLRLMGLTDADVTDPDHQPCAMLHSQTSSSHNVTDKVHRGVKYNSPTASSVAGLSHSASLGGDAIQFSLMNTTNTLRDTSPIVASGPSSSSSRPLFSAPRSVHWEEESIATTSHSSQLPQRAGASGCTAAAISEELKDVGNRSFEAGAFREAVQHYTAAIDALAASTTHSSAEVLLLSALYSNRSAAYLQAAHQMPSVEDAYARALCDADRTVSLRTSWFKGYARQGDAYFKLKRYGAAAEAYEMALQLDPRNKTLMNALSESRQRARHAAREELELRRTMRSTTSTTSSLASSMTGQAGSSTWSEGDPRGGAAASQQAQTLSDVYDGGRRRSGQAQQLWAALKHEVEATVHEVTGDAYRLQQLERFRARCSKGATPTARQAAERKTYVKGVTALASGAPASEPMREASVSGSRFSTATRPDVDVSTAAAAAAAERRHVSSVSPFAATALSSEPHLPPRRRSSASAAFDGPVKNARDVPYEFSSAAASAYQQRLLEEFRKRKATKQ,not soluble
8,MGSDKIHHHHHHMMVPHLTTALTGPLLTLEKRLLDNMPRIEHWFRSQWQEYGAPFYASVDLRNAGFKLAPVDTNLFPGGFNNLNPDFLPLCIQAAMVAVEKICPDARRLLLIPENHTRNTFYLRNVHALTHILRQAGLEVRIGSIAPEITAPTFLETHDGHSILLEPVRRKANRLELDNFDSCAILLNNDLSGGIPDILQGLEQSLIPPLHAGWATRRKSNHFTAYDRVVEEFAPLIDIDPWLLNPYFDTCGGLDFHARLGEEQLAEKVDSLLAKIRRKYAEYGVKQEPFVIVKADAGTYGMGIMTVKSADDVRDLNRKQRNKMSVVKEGLKVSEVILQEGVYTFEHLKDAVAEPVIYMMDHFVVGGFYRVHTSRGADENLNAPGMHFEPLTFETPCSTPDCAGAPDAAPNRFYAYGVVARLALLAATIELQETDPDLLDERT,not soluble
9,IASPQAGMAALTGTLAGTRQGMISFTQQNEQEADRIGIQVLQRAGFDPQAMPSFLEKLLDQARYSTRPPEILLTHPLPESRLADARNRANQMRPVVVQSSADFYFAKARALGMYNSGRNQLTSDLLDQWSKGNVHQQHAAQYGRALQAMEASKYDEARKTLQPLLSAEPNNAWYLDLATDIDLGQKRANDAINRLKNARDLRVNPVLQLNLANAYLQGGQPKAAETILNRYTFSHKDDGNGWDLLAQAEAALNNRDQELAARAESYALAGRLDQAISLLSSASAQAKLGCQQQARYDARIDQLRQLQERFKPYTK,not soluble
10,MSLNDKAILVGVDGSHASYKATWWAANYAKHAGLTLQIVCAYSLPSYAAVSFDATYTAMGDDNAAHNDAQEILSKAKAIADEQGVEASTLIVTGDPASVFVELSRNYNLIVIGNRGKGGLAERLLGTTSSSLPAYAYCPIVVVPYTDDEGNLMHLNNTITKVAVGSDESKWGLKALEIAAAFADSWGAELDVISAVPNMKGSEDEGVMASFQEDLDVRIKPLEAAYPSLKINKQIVPGPAAGALTKASYDHDVVVVGSRGRGGFTGLLLGSTSQGLLQHAVGPVYVVPRKYVEAAETRLDTVPSSPADVTPKAIDDIKGVEEVPVDKAKPEVVEAIETKIDPDREGHHHHHH,soluble
11,MVSLCKLFGVTKQAFYKYVDHSTDSSARERFVLEFVKRVRSKDPGIGGMKLWLMYRNEFGTSQAFVGRDCFCAILSKYKLTIRKRFRAPRTTDSSHHLPQYPDLTRTLLLEHPDQLWVSDITYITIWLPDGSYVFCYLSLVTDAYTKEIIGYCVGDTLGSCYTVEALEMAVRRIAAKEIKGLIHHSDRGVQYASADYIAILRHNGILPSMTEDGNPKDNAIAERVNGIIKNELLQGMRFSSIQEVRKAVATAVHFYNNERPHMSLDMLTPVQAGEMQGPIRKRWISYREKYLNVALA,not soluble
12,LLQLNIQNFAIVRSLDIDWQSGMTTITGETGAGKSIAIDALGLCLGDRATTNVVRPNCKKADLAATFEIKKNKMARAWLKQHELVSEHDSECILRRVISAEGRSKSYINGSQVPLVQLKEIGQLLINIHGQHDHQLIVKANQQCRLLDNYANHTPLLSAVKHYAQQWNKLNKELEMLQQSKQQREAEQQLIQYQVTELDEFSLQ,not soluble
13,MSLGYNFHLSDMQAQLEQQAAEEETLKQQFSTKAFQAANLEAYKAQMKEMEESFGALLRQLPSDTEVPGLLEDITRTGLGSGLEFEEIKLLPEVAQQFYIELPIQISVVGGYHDLATFVSGVSSLPRIVTLHDFEIKPVAPGSTSKLRMSILAKTYRYNDKGLKKEGHHHHHH,soluble
